We go through 1 molecule from paper PMC10469072.

This data set concerns the target CD22 (recombinant, histidine-tagged; Thermo Fisher A42609) (human, UniProt P20273 20-687). Put plainly: His-bead pull-down with qRT-PCR. On the technique in general: Quantitative PCR measures a nucleic acid by following its amplification.

Sequence of CD22 (recombinant, histidine-tagged; Thermo Fisher A42609) (P20273 20-687, one chain of several): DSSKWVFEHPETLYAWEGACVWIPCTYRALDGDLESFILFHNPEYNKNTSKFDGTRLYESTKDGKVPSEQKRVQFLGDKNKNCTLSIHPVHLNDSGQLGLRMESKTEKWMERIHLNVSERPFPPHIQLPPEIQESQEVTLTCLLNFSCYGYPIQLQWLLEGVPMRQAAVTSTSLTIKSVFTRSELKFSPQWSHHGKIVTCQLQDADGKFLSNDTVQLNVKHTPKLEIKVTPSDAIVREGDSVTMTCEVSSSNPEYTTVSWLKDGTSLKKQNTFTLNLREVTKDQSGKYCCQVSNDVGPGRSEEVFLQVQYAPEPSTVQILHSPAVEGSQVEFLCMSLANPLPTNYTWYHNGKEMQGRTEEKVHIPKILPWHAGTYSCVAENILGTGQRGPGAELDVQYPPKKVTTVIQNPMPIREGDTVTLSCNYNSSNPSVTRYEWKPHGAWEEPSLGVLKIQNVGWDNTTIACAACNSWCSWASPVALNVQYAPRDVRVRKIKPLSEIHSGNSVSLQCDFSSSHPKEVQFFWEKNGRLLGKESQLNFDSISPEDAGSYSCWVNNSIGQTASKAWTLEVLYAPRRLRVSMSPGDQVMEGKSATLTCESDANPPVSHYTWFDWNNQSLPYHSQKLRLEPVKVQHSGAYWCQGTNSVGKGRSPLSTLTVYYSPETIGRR

B1: B-ALL1 (structured_RNA)
RNA: GGGAGGACGAUGCGGGCCAUUCGUCUUUUCGUCCCCAGACGACUCGCCCGA
modifications: 2'-fluoro pyrimidines (2'F-C, 2'F-U), unmodified purines
Turning to B1, the binding result is “binds”.
